Results from PMC6379965, “Expression and activity of the calcitonin receptor family in a sample of primary human high-grade gliomas” (BMC Cancer, 2019).
Where two headings read alike, the source gives them in different places. Ends that are not written are not given here.

Columns and labels:
[1] = biological target: calcitonin receptor (human (endogenous in SB2b)) (UniProt P30988)
PB1 cell line [2] = assay: Ca2+ mobilization, PB1; type: cell-based, human; conditions: Fluo4-AM, FlexStation, 37 °C, pH 7.4, peak RFU, ATP 10 μM, ionomycin 1 μM, representative experiment, 3 replicates
Description: (§3) Primary patient high-grade glioma (HGG) cell lines, in vitro surrogates of glioblastoma, were developed by QIMR-Berghofer Medical Research Institute (Brisbane, Australia) and represent 3 distinct GBM subtypes: SB2b and PB1 (classical), JK2 (proneural) and WK1(mesenchymal) [37], who supplied these directly for this study. GBM cell lines were cultured as adherent monolayers on matrigel (BD Biosciences)-coated flasks using StemPro NSC SFM serum free cell culture medium (Thermo Fisher Scientific) supplemented with 20 ng/ml EGF and 20 ng/ml FGFb, 1% D-glutamine and 1% of penicillin/ streptomycin (further referred as StemPro complete medium).
(§4) GBM cell lines were seeded at 38000 cells/well (SB2b) or 35,000 cells/well (PB1 and WK1) in 96-well matrigel-coated plates and incubated for 24 h at 37 °C, 5% CO2 in humidified incubator in StemPro complete medium. […] Cells were incubated at 37°C for 60 min before ligand addition and detection of Ca^2+ mobilisation in a FlexStation 3 (Molecular Devices).

WK1 cell line [3] = assay: Ca2+ mobilization, WK1; type: cell-based, human; conditions: Fluo4-AM, FlexStation, 37 °C, pH 7.4, peak RFU, ATP 10 μM, ionomycin 1 μM, representative experiment, 3 replicates
Description: as §3, §4

SB2b cell line = assay: Ca2+ mobilization, SB2b; type: cell-based, human; conditions: Fluo4-AM, FlexStation, 37 °C, pH 7.4, peak RFU, ATP 10 μM, ionomycin 1 μM, representative experiment, 3 replicates
Description: as §3, §4

CTR in SB2b cell line = biological target: T1, CTR in SB2b cell line (Homo sapiens, UniProt P30988); assay: cAMP accumulation, CTR agonists, SB2b; type: cell-based; conditions: read-out: Emax, cAMP accumulation
T1 construct: only one of the studied cell lines expressed functional CTR; endogenous in cells; host or cells: SB2b patient-derived high-grade glioma cell line
T1 sequence (P30988 25-474): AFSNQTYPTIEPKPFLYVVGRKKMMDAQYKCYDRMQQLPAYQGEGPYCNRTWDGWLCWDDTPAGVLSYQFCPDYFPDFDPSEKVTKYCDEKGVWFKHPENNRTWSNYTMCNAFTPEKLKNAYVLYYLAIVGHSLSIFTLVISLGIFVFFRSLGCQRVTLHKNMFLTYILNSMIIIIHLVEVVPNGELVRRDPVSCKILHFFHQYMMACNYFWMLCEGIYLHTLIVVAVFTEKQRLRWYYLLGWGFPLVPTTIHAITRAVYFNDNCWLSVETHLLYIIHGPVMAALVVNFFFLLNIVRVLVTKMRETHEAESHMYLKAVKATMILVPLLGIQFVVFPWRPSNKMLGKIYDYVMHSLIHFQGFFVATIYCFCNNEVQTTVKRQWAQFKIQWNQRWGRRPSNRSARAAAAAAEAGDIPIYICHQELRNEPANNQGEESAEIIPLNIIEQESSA
Description: (§1) Primary patient high-grade glioma (HGG) cell lines, in vitro surrogates of glioblastoma, were developed by QIMR-Berghofer Medical Research Institute (Brisbane, Australia) and represent 3 distinct GBM subtypes: SB2b and PB1 (classical), JK2 (proneural) and WK1(mesenchymal), who supplied these directly for this study. GBM cell lines were cultured as adherent monolayers on matrigel (BD Biosciences)-coated flasks using StemPro NSC SFM serum free cell culture medium (Thermo Fisher Scientific) supplemented with 20 ng/ml EGF and 20 ng/ml FGFb, 1% D-glutamine and 1% of penicillin/ streptomycin (further referred as StemPro complete medium).
GBM cell lines were seeded at 38000 cells/well (SB2b) or 35,000 cells/well (PB1, JK2 and WK1) in 96-well matrigel-coated plates and incubated for 24 h at 37°C, 5% CO2 in humidified incubator in StemPro complete medium. Media was replaced with stimulation buffer (phenol red free F12 media, 0.1% BSA, 0.5 mM IBMX, pH 7.4). […] Cells were lysed (0.3% Tween 20, 5 mM Hepes, 0.1% BSA, pH 7.4) and 5 μl of cell lysate from each well was transferred to a corresponding well of 384-well optiplate. […] Data were analysed by three-parameter logistic curve and are presented as percentage of 10^− 5 M forskolin response.

JK2 cell line = assay: cAMP accumulation, CTR agonists, JK2; type: cell-based, human; conditions: 1 μM antagonist
Description: as §1, with “medium). Cells were cultured in 5% CO2 / 95% humidified air at 37 °C.” for “medium).”
(§2) GBM cell lines were seeded at 38000 cells/well (SB2b) or 35,000 cells/well (PB1, JK2 and WK1) in 96-well matrigel-coated plates and incubated for 24 h at 37°C, 5% CO2 in humidified incubator in StemPro complete medium. Media was replaced with stimulation buffer (phenol red free F12 media, 0.1% BSA, 0.5 mM IBMX, pH 7.4). […] Cells were lysed (0.3% Tween 20, 5 mM Hepes, 0.1% BSA, pH 7.4) and 5 μl of cell lysate from each well was transferred to a corresponding well of 384-well optiplate. Intracellular cAMP levels in the wells were determined using Lance Ultra cAMP assay kit (Perkin Elmer) according to the manufacturer’s instructions and detected using an Envision multilabel 2103 reader. Raw RFU values were converted using a cAMP standard curve to give absolute cAMP concentrations. Data were analysed by three-parameter logistic curve and are presented as percentage of 10^− 5 M forskolin response.

PB1 cell line [4] = assay: cAMP accumulation, CTR agonists, PB1; type: cell-based, human; conditions: 1 μM antagonist
Description: as §1, with “medium). Cells were cultured in 5% CO2 / 95% humidified air at 37 °C.” for “medium).”
as §2

WK1 cell line [5] = assay: cAMP accumulation, CTR agonists, WK1; type: cell-based, human; conditions: 1 μM forskolin
Description: as §1, with “medium). Cells were cultured in 5% CO2 / 95% humidified air at 37 °C.” for “medium).”
GBM cell lines were seeded at 38000 cells/well (SB2b) or 35,000 cells/well (PB1, JK2 and WK1) in 96-well matrigel-coated plates and incubated for 24 h at 37°C, 5% CO2 in humidified incubator in StemPro complete medium. Media was replaced with stimulation buffer (phenol red free F12 media, 0.1% BSA, 0.5 mM IBMX, pH 7.4). […] Intracellular cAMP levels in the wells were determined using Lance Ultra cAMP assay kit (Perkin Elmer) according to the manufacturer’s instructions and detected using an Envision multilabel 2103 reader. […] Data were analysed by three-parameter logistic curve and are presented as percentage of 10^− 5 M forskolin response.

[6] = biological target: CGRP (CLR/RAMP1) receptor (human (endogenous in PB1, JK2 and WK1)) (UniProt Q16602)
Chain of CGRP (CLR/RAMP1) receptor (human (endogenous in PB1, JK2 and WK1)) (Q16602 23-461, chain 1 of 2): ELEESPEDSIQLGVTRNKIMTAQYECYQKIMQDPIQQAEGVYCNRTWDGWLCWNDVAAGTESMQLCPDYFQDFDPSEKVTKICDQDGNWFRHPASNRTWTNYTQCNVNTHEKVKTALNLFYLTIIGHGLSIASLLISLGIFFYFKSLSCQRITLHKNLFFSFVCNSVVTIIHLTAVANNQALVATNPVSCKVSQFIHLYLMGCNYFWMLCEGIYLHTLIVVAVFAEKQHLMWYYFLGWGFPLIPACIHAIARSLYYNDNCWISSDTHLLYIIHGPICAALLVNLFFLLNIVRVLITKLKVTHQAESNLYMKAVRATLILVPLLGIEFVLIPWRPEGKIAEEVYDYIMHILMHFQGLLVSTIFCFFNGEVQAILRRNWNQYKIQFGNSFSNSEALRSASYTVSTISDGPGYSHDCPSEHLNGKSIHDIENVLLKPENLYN
Chain of CGRP (CLR/RAMP1) receptor (human (endogenous in PB1, JK2 and WK1)) (O60894 27-148, chain 2 of 2, further chain): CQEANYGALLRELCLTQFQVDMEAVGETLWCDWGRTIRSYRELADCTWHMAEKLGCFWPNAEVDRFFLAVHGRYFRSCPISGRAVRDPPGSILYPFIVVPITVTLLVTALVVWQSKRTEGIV

[7] = biological target: CGRP (CLR/RAMP1) receptor (human (endogenous in PB1, JK2 and WK1)) (UniProt Q16602); remark: listed apart in the source

Molecule: human calcitonin (from UniProt P01258 85-116) (peptide)
- Emax of cAMP accumulation in SB2b cells (% of forskolin) [1]: 43

Molecule: Nc1ncnc2c1ncn2[C@@H]1O[C@H](COP(=O)(O)OP(=O)(O)OP(=O)(O)O)[C@@H](O)[C@H]1O [ATP]
- intracellular Ca2+ mobilisation response (PB1 cell line [2]): robust response
- intracellular Ca2+ mobilisation response (WK1 cell line [3]): robust response
- intracellular Ca2+ mobilisation response (SB2b cell line): robust response

Molecule: CC[C@H](C)[C@H](NC(=O)[C@H](C)NC(=O)[C@@H](NC(=O)[C@H](CCC(N)=O)NC(=O)[C@@H]1CCCN1C(=O)[C@H](Cc1ccccc1)NC(=O)[C@@H](NC(=O)[C@H](Cc1c[nH]cn1)NC(=O)[C@H](Cc1ccccc1)NC(=O)[C@H](CCCCN)NC(=O)[C@H](CC(N)=O)NC(=O)[C@H](Cc1ccccc1)NC(=O)[C@H](CC(=O)O)NC(=O)[C@H](CCC(N)=O)NC(=O)[C@@H](NC(=O)[C@H](Cc1ccc(O)cc1)NC(=O)[C@@H](NC(=O)CNC(=O)[C@H](CC(C)C)NC(=O)[C@H](CCSC)NC(=O)[C@@H]1CSSC[C@H](N)C(=O)NCC(=O)N[C@@H](CC(N)=O)C(=O)N[C@@H](CC(C)C)C(=O)N[C@@H](CO)C(=O)N[C@@H]([C@@H](C)O)C(=O)N1)[C@@H](C)O)[C@@H](C)O)[C@@H](C)O)[C@@H](C)O)C(=O)NCC(=O)N[C@H](C(=O)NCC(=O)N[C@@H](C)C(=O)N1CCC[C@H]1C(N)=O)C(C)C [hCT, Human CT]
- Emax (CTR in SB2b cell line): 43%

Molecule: C[C@H](CCC(=O)O)C[C@H](C)C[C@H](C)C(=O)/C=C(\O)[C@H](C)C[C@H](C)C/C=C/[C@@H](C)[C@@H](O)[C@@H](C)[C@@H](O)C[C@@H]1CC[C@@](C)([C@H]2CC[C@@](C)([C@@H](C)O)O2)O1 [ionomycin]
- intracellular Ca2+ mobilisation response (PB1 cell line [2]): robust response
- intracellular Ca2+ mobilisation response (WK1 cell line [3]): robust response
- intracellular Ca2+ mobilisation response (SB2b cell line): robust response

Molecule: αCGRP(8–37): CGRP receptor antagonist (VTHRLAGLLSRSGGVVKNNFVPTNVGSKAF; ends and bridges not checked; UniProt P06881 90-119, looked up, fragment)
- effect of antagonist on amylin cAMP response (JK2 cell line): abolishing this response
- effect of antagonist on amylin cAMP response (PB1 cell line [4]): abolishing this response

Molecule: salmon calcitonin (peptide)
- Emax of cAMP accumulation in SB2b cells (% of forskolin) [1]: 35
- pEC50 of cAMP accumulation (30 min) in SB2b cells [1]: 9.4 pEC50

Molecule: C=C[C@@]1(C)CC(=O)[C@]2(O)[C@@]3(C)[C@@H](O)CCC(C)(C)[C@@H]3[C@H](O)[C@H](OC(C)=O)[C@@]2(C)O1 [forskolin]
- increase of basal cAMP (WK1 cell line [5]): 4 fold

Molecule: CC(C)C[C@H](NC(=O)[C@H](CCCCN)NC(=O)CNC(=O)[C@H](CC(C)C)NC(=O)[C@@H](NC(=O)[C@@H]1CSSC[C@H](N)C(=O)N[C@@H](CO)C(=O)N[C@@H](CC(N)=O)C(=O)N[C@@H](CC(C)C)C(=O)N[C@@H](CO)C(=O)N[C@@H]([C@@H](C)O)C(=O)N1)C(C)C)C(=O)N[C@@H](CO)C(=O)N[C@@H](CCC(N)=O)C(=O)N[C@@H](CCC(=O)O)C(=O)N[C@@H](CC(C)C)C(=O)N[C@@H](Cc1c[nH]cn1)C(=O)N[C@@H](CCCCN)C(=O)N[C@@H](CC(C)C)C(=O)N[C@@H](CCC(N)=O)C(=O)N[C@H](C(=O)N[C@@H](Cc1ccc(O)cc1)C(=O)N1CCC[C@H]1C(=O)N[C@@H](CCCNC(=N)N)C(=O)N[C@H](C(=O)N[C@@H](CC(N)=O)C(=O)N[C@H](C(=O)NCC(=O)N[C@@H](CO)C(=O)NCC(=O)N[C@H](C(=O)N1CCC[C@H]1C(N)=O)[C@@H](C)O)[C@@H](C)O)[C@@H](C)O)[C@@H](C)O [sCT, Salmon CT]
- Emax (CTR in SB2b cell line): 35%

Molecule: αCGRP(8–37) (peptide)
- shift of the cAMP potency of αCGRP by 1 μM αCGRP(8–37) in PB1, JK2 and WK1 cells; blocks m4 + m8 [6]: 100 fold

B1: adrenomedullin (peptide)
peptide: YRQSMNNFQGLRSFGCRFGTCTVQKLAHQIYQFTDKDKDNVAPRSKISPQGY
- pEC50 of cAMP accumulation (30 min) in JK2 cells [6]: 7 pEC50
- pEC50 of cAMP accumulation (30 min) in PB1 cells [6]: 7.3 pEC50
- pEC50 of cAMP accumulation (30 min) in WK1 cells [6]: 6.8 pEC50
- pEC50 of cAMP accumulation to AM alone, antagonist experiment, JK2 cells [6]: 7.2 pEC50
- pEC50 of cAMP accumulation to AM alone, antagonist experiment, PB1 cells [6]: 7.2 pEC50
- pEC50 of cAMP accumulation to AM alone, antagonist experiment, WK1 cells [6]: 6.9 pEC50
- pEC50 of cAMP accumulation to AM with 1 μM AM(22–52), JK2 cells [6]: 7.3 pEC50
- pEC50 of cAMP accumulation to AM with 1 μM AM(22–52), PB1 cells [6]: 7.1 pEC50
- pEC50 of cAMP accumulation to AM with 1 μM AM(22–52), WK1 cells [6]: 6.7 pEC50

Molecule: KCNTATCATQRLANFLVRSSNNLGPVLPPTNVGSNTY [amylin (rAmy)]
- pEC50 of cAMP accumulation (30 min) in SB2b cells [1]: 6.8 pEC50
- pEC50 of cAMP accumulation (30 min) in JK2 cells [7]: 5.9 pEC50
- pEC50 of cAMP accumulation (30 min) in PB1 cells [7]: 6.1 pEC50
